Here are results for seven variants from IntAct's records for PubMed 24012335.

The chains are these.
B1: Serine/threonine-protein kinase Warts (Drosophila melanogaster (Fruit fly)), Q9VA38 (parent)
chain: MHPAGEKRGGRPNDKYTAEALESIKQDLTRFEVQNNHRNNQNYTPLRYTATNGRNDALTPDYHHAKQPMEPPPSASPAPDVVIPPPPAIVGQPGAGSISVSGVGVGVVGVANGRVPKMMTALMPNKLIRKPSIERDTASSHYLRCSPALDSGAGSSRSDSPHSHHTHQPSSRTVGNPGGNGGFSPSPSGFSEVAPPAPPPRNPTACSAATPPPPVPPTSQAYVKRRSPALNNRPPAIAPPTQRGNSPVITQNGLKNPQQQLTQQLKSLNLYPGGGSGAVVEPPPPYLIQGGAGGAAPPPPPPSYTASMQSRQSPTQSQQSDYRKSPSSGIYSATSAGSPSPITVSLPPAPLAKPQPRVYQARSQQPIIMQSVKSTQVQKPVLQTAVAPQSPSSASASNSPVHVLAAPPSYPQKSAAVVQQQQQAAAAAHQQQHQHQQSKPPTPTTPPLVGLNSKPNCLEPPSYAKSMQAKAATVVQQQQQQQQQQQQVQQQQVQQQQQQQQQQLQALRVLQAQAQRERDQRERDQRERERDQQKLANGNPGRQMLPPPPYQSNNNNNSEIKPPSCNNNNIQISNSNLATTPPIPPAKYNNNSSNTGANSSGGSNGSTGTTASSSTSCKKIKHASPIPERKKISKEKEEERKEFRIRQYSPQAFKFFMEQHIENVIKSYRQRTYRKNQLEKEMHKVGLPDQTQIEMRKMLNQKESNYIRLKRAKMDKSMFVKLKPIGVGAFGEVTLVSKIDTSNHLYAMKTLRKADVLKRNQVAHVKAERDILAEADNNWVVKLYYSFQDKDNLYFVMDYIPGGDLMSLLIKLGIFEEELARFYIAEVTCAVDSVHKMGFIHRDIKPDNILIDRDGHIKLTDFGLCTGFRWTHNSKYYQENGNHSRQDSMEPWEEYSENGPKPTVLERRRMRDHQRVLAHSLVGTPNYIAPEVLERSGYTQLCDYWSVGVILYEMLVGQPPFLANSPLETQQKVINWEKTLHIPPQAELSREATDLIRRLCASADKRLGKSVDEVKSHDFFKGIDFADMRKQKAPYIPEIKHPTDTSNFDPVDPEKLRSNDSTMSSGDDVDQNDRTFHGFFEFTFRRFFDDKQPPDMTDDQAPVYV
partner: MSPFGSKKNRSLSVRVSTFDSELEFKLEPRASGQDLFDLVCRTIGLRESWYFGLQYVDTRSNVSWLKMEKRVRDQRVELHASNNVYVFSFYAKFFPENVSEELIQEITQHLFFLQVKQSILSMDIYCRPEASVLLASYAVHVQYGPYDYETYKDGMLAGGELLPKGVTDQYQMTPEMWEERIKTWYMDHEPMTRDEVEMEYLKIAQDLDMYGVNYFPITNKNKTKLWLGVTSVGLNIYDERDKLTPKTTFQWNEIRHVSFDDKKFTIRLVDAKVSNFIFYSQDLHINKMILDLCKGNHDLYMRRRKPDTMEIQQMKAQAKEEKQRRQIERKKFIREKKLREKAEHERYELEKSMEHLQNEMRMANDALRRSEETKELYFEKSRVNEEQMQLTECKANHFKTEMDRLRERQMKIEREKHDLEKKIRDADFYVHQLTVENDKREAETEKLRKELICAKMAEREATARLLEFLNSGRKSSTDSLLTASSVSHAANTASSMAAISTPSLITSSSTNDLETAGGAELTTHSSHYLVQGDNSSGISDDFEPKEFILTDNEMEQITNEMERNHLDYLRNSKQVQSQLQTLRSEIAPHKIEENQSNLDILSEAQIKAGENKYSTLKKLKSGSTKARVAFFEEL
B2: Merlin (Homo sapiens), P35240 (parent)
chain: MAGAIASRMSFSSLKRKQPKTFTVRIVTMDAEMEFNCEMKWKGKDLFDLVCRTLGLRETWFFGLQYTIKDTVAWLKMDKKVLDHDVSKEEPVTFHFLAKFYPENAEEELVQEITQHLFFLQVKKQILDEKIYCPPEASVLLASYAVQAKYGDYDPSVHKRGFLAQEELLPKRVINLYQMTPEMWEERITAWYAEHRGRARDEAEMEYLKIAQDLEMYGVNYFAIRNKKGTELLLGVDALGLHIYDPENRLTPKISFPWNEIRNISYSDKEFTIKPLDKKIDVFKFNSSKLRVNKLILQLCIGNHDLFMRRRKADSLEVQQMKAQAREEKARKQMERQRLAREKQMREEAERTRDELERRLLQMKEEATMANEALMRSEETADLLAEKAQITEEEAKLLAQKAAEAEQEMQRIKATAIRTEEEKRLMEQKVLEAEVLALKMAEESERRAKEADQLKQDLQEAREAERRAKQKLLEIATKPTYPPMNPIPAPLPPDIPSFNLIGDSLSFDFKDTDMKRLSMEIEKEKVEYMEKSKHLQEQLNELKTEIEALKLKERETALDILHNENSDRGGSSKHNTIKKLTLQSAKSRVAFFEEL
partner: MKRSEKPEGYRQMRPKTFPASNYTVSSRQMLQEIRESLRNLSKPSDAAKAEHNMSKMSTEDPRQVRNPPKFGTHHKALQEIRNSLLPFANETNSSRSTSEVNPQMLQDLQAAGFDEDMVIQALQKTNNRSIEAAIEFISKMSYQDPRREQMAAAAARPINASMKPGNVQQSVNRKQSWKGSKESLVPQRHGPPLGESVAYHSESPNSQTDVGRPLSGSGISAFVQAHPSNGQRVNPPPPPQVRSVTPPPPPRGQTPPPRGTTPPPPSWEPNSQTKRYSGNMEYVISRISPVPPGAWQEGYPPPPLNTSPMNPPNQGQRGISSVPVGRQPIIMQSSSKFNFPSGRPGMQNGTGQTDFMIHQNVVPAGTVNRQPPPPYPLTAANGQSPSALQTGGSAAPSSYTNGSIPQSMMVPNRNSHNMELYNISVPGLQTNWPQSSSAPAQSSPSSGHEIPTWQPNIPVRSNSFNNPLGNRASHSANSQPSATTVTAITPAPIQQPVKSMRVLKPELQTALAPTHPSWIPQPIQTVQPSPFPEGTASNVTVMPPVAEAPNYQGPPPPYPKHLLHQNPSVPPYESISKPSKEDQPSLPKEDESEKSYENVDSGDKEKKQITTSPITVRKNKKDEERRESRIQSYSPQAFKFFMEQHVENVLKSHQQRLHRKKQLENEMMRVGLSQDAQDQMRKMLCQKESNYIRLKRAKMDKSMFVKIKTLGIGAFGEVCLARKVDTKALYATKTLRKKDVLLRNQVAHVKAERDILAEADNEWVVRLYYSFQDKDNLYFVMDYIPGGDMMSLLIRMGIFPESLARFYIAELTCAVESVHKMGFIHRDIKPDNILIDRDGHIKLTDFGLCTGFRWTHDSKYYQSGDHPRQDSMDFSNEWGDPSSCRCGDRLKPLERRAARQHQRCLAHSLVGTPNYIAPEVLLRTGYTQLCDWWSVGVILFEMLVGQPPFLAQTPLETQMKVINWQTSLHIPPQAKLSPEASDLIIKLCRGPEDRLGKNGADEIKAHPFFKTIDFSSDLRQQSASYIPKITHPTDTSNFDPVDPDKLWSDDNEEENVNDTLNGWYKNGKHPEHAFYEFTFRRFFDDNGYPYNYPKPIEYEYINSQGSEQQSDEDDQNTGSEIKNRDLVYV
B3: Serine/threonine-protein kinase LATS1 (Homo sapiens), O95835 (parent)
chain: B2 partner
B4: Serine/threonine-protein kinase Warts (Drosophila melanogaster (Fruit fly)), Q9VA38 (parent)
chain: B1 chain
partner: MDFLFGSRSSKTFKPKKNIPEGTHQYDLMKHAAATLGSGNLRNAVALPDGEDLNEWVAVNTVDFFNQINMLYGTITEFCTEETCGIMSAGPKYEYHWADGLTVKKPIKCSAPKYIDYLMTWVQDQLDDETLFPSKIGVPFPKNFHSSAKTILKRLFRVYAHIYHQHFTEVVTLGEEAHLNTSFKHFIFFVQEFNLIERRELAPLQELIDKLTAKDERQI

The first assay covers variants of B1. The settings on record: with merh_drome Mer.
As to A20P;I24T;L28P, the “effect of a mutation on the interaction” value is “disrupting interaction strength”.

Another assay covers variants of B2. To be noted: with lats1_human LATS1, O95835.
As for MAGAIASRMSFSSLKRKQPKTFTVRIVTMDAEMEFNCEMKWKGKDLFDLVCRTLGLRETWFFGLQYTIKDTVAWLKMDKKVLDHDVSKEEPVTFHFLAKFYPENAEEELVQEITQHLFFLQVKKQILDEKIYCPPEASVLPASYAVQAKYGDYDPSVHKRGFLAQEELLPKRVINLYQMTPEMWEERITAWYAEHRGRARDEAEMEYLKIAQDLEMYGVNYFAIRNKKGTELLLGVDALGLHIYDPENRLTPKISFPWNEIRNISYSDKEFTIKPLDKKIDVFKFNSSKLRVNKLILQLCIGNHDLFMRRRKADSLEVQQMKAQAREEKARKQMERQRLAREKQMREEAERTRDELERRLLQMKEEATMANEALMRSEETADLLAEKAQITEEEAKLLAQKAAEAEQEMQRIKATAIRTEEEKRLMEQKVLEAEVLALKMAEESERRAKEADQLKQDLQEAREAERRAKQKLLEIATKPTYPPMNPIPAPLPPDIPSFNLIGDSLSFDFKDTDMKRLSMEIEKEKVEYMEKSKHLQEQLNELKTEIEALKLKERETALDILHNENSDRGGSSKHNTIKKLTLQSAKSRVAFFEEL [L141P], the “effect of a mutation on the interaction” value is listed as “disrupting interaction strength”. Same read-out and setting: next, MAGAIASRMSFSSLKRKQPKTFTVRIVTMDAEMEFNCEMKWKGKDLFDLVCRTLGLRETWFFGPQYTIKDTVAWLKMDKKVLDHDVSKEEPVTFHFLAKFYPENAEEELVQEITQHLFFLQVKKQILDEKIYCPPEASVLLASYAVQAKYGDYDPSVHKRGFLAQEELLPKRVINLYQMTPEMWEERITAWYAEHRGRARDEAEMEYLKIAQDLEMYGVNYFAIRNKKGTELLLGVDALGLHIYDPENRLTPKISFPWNEIRNISYSDKEFTIKPLDKKIDVFKFNSSKLRVNKLILQLCIGNHDLFMRRRKADSLEVQQMKAQAREEKARKQMERQRLAREKQMREEAERTRDELERRLLQMKEEATMANEALMRSEETADLLAEKAQITEEEAKLLAQKAAEAEQEMQRIKATAIRTEEEKRLMEQKVLEAEVLALKMAEESERRAKEADQLKQDLQEAREAERRAKQKLLEIATKPTYPPMNPIPAPLPPDIPSFNLIGDSLSFDFKDTDMKRLSMEIEKEKVEYMEKSKHLQEQLNELKTEIEALKLKERETALDILHNENSDRGGSSKHNTIKKLTLQSAKSRVAFFEEL [L64P]: “disrupting interaction strength”. For the variant MAGAIASRMSFSSLKRKQPKTFTVRIVTMDAEMEFNCEMKWKGKDLFDLVCRTLGLRETWFSGLQYTIKDTVAWLKMDKKVLDHDVSKEEPVTFHFLAKFYPENAEEELVQEITQHLFFLQVKKQILDEKIYCPPEASVLLASYAVQAKYGDYDPSVHKRGFLAQEELLPKRVINLYQMTPEMWEERITAWYAEHRGRARDEAEMEYLKIAQDLEMYGVNYFAIRNKKGTELLLGVDALGLHIYDPENRLTPKISFPWNEIRNISYSDKEFTIKPLDKKIDVFKFNSSKLRVNKLILQLCIGNHDLFMRRRKADSLEVQQMKAQAREEKARKQMERQRLAREKQMREEAERTRDELERRLLQMKEEATMANEALMRSEETADLLAEKAQITEEEAKLLAQKAAEAEQEMQRIKATAIRTEEEKRLMEQKVLEAEVLALKMAEESERRAKEADQLKQDLQEAREAERRAKQKLLEIATKPTYPPMNPIPAPLPPDIPSFNLIGDSLSFDFKDTDMKRLSMEIEKEKVEYMEKSKHLQEQLNELKTEIEALKLKERETALDILHNENSDRGGSSKHNTIKKLTLQSAKSRVAFFEEL [F62S], the “effect of a mutation on the interaction” value is “disrupting interaction strength”. Same read-out and setting: the entry for MAGAIASRMSFSSLKRKQPKTFTVRIVTMDAEMEFNCEMKWKGKDRFDLVCRTLGLRETWFFGLQYTIKDTVAWLKMDKKVLDHDVSKEEPVTFHFLAKFYPENAEEELVQEITQHLFFLQVKKQILDEKIYCPPEASVLLASYAVQAKYGDYDPSVHKRGFLAQEELLPKRVINLYQMTPEMWEERITAWYAEHRGRARDEAEMEYLKIAQDLEMYGVNYFAIRNKKGTELLLGVDALGLHIYDPENRLTPKISFPWNEIRNISYSDKEFTIKPLDKKIDVFKFNSSKLRVNKLILQLCIGNHDLFMRRRKADSLEVQQMKAQAREEKARKQMERQRLAREKQMREEAERTRDELERRLLQMKEEATMANEALMRSEETADLLAEKAQITEEEAKLLAQKAAEAEQEMQRIKATAIRTEEEKRLMEQKVLEAEVLALKMAEESERRAKEADQLKQDLQEAREAERRAKQKLLEIATKPTYPPMNPIPAPLPPDIPSFNLIGDSLSFDFKDTDMKRLSMEIEKEKVEYMEKSKHLQEQLNELKTEIEALKLKERETALDILHNENSDRGGSSKHNTIKKLTLQSAKSRVAFFEEL [L46R] is “disrupting interaction strength”.

The variants in the next assay derive from B3. To be noted: with merl_human NF2, P35240.
Consider A77P;I81T;L85P, for which the “effect of a mutation on the interaction” value was “disrupting interaction strength”.

A further assay covers variants of B3. To be noted: with NF2, P35240-1.
On to A77P;I81T;L85P, for which the “effect of a mutation on the interaction” value is listed as “disrupting interaction strength”.

The variants in the next assay derive from B4. The settings on record: with mob1_drome mats.
R708A: the “effect of a mutation on the interaction” value was “disrupting interaction strength”.
